Results from the RNAGym collection of RNA variant scans (doi:10.1101/gr.219683.116).

B1: mRNA-splicing (parent)
chain: AGUUGCUGCUGGGAGCUCCAGCACAGUGAAAUGGACAGAAGGGCAGAGCAA

Variants of: B1
Experiment: exon inclusion enrichment index; higher = more inclusion; WT1 exon 5 minigene, HEK293

Point of comparison: AGUUAGGGAUGGGAGCUCCAGCACAGUGAAACUGACAGAAGGGCAGAGCAA [G5A C6G U7G C9A U32C G33U], “exon inclusion enrichment index” value 0.00177. Against it:
- AGUUAGGUGUGGGAGCUCCAGCACAGUGAAAUGGACAGAAGGGCAGAGCAA [G5A C6G U7G G8U C9G] — lower, 0.00173
- AGUUAGGUUUGGGAGCUCCAGCACAGUGAAAUGGACAGAAGGGCAGAGCAA [G5A C6G U7G G8U C9U] — lower, 0.00149
- AGUUAGGUAUGGGAGCUCCAGCACAGUGAAAUGGACAGAAGGGCAGAGCAA [G5A C6G U7G G8U C9A] — higher, 0.00192
- AGUUAGGGAUGGGAGCUCCAGCACAGGGAAAUGGACAGAAGGGCAGAGCAA [G5A C6G U7G C9A U27G] — lower, 0.000925
- AGUUAGGGAUGGGAGCUCCAGCACAGAGAAAUGGACAGAAGGGCAGAGCAA [G5A C6G U7G C9A U27A] — higher, 0.00261
- AGUUAGGGAUGGGAGCUCCAGCACAGCGAAAUGGACAGAAGGGCAGAGCAA [G5A C6G U7G C9A U27C] — higher, 0.00674
- AGUUAGGGCAGGGAGCUCCAGCACAGUGAAAUGGACAGAAGGGCAGAGCAA [G5A C6G U7G U10A] — lower, 0.00101
- AGUUAGGGCCGGGAGCUCCAGCACAGUGAAAUGGACAGAAGGGCAGAGCAA [G5A C6G U7G U10C] — higher, 0.0118
- AGUUAGGGAUGGGAGCGGCAGCACAGUGAAAUGGACAGAAGGGCAGAGCAA [G5A C6G U7G C9A U17G C18G] — lower, 0.00151
- AGUUAGGGAUGGGAGCGACAGCACAGUGAAAUGGACAGAAGGGCAGAGCAA [G5A C6G U7G C9A U17G C18A] — higher, 0.00242
- AGUUAGGGAUGGGAGCGUCAGCACAGUGAAAUGGACAGAAGGGCAGAGCAA [G5A C6G U7G C9A U17G C18U] — lower, 0.00166
- AGUUAGGGGUGGGAGCUCCAGCACAGUGAAAUGGACAGAAGGGCAGAGCAA [G5A C6G U7G C9G] — higher, 0.00209
- AGUUAGGGUUGGGAGCUCCAGCACAGUGAAAUGGACAGAAGGGCAGAGCAA [G5A C6G U7G C9U] — higher, 0.00241
- AGUUAGGAUUGGGAGCUCCAGCACAGUGAAAUGGACAGAAGGGCAGAGCAA [G5A C6G U7G G8A C9U] — higher, 0.0075
- AGUUAGGAAUGGGAGCUCCAGCACAGUGAAAUGGACAGAAGGGCAGAGCAA [G5A C6G U7G G8A C9A] — higher, 0.00786
- AGUUAGGAGUGGGAGCUCCAGCACAGUGAAAUGGACAGAAGGGCAGAGCAA [G5A C6G U7G G8A C9G] — higher, 0.0105
- AGUUAGGGAUGGGAGCUCCAGCACAGUGAAAGCGACAGAAGGGCAGAGCAA [G5A C6G U7G C9A U32G G33C] — higher, 0.00522
- AGUUAGGGAUGGGAGCUCCAGCACAGUGAAAGUGACAGAAGGGCAGAGCAA [G5A C6G U7G C9A U32G G33U] — lower, 0.000945
- AGUUAGGGAUGGGAGCUCCAGCACAGUGAAAGAGACAGAAGGGCAGAGCAA [G5A C6G U7G C9A U32G G33A] — lower, 0.00113
- AGUUAGGGGGGGGAGCUCCAGCACAGUGAAAUGGACAGAAGGGCAGAGCAA [G5A C6G U7G C9G U10G] — higher, 0.0568
- AGUUAGGGGCGGGAGCUCCAGCACAGUGAAAUGGACAGAAGGGCAGAGCAA [G5A C6G U7G C9G U10C] — higher, 0.00245
- AGUUAGGGGAGGGAGCUCCAGCACAGUGAAAUGGACAGAAGGGCAGAGCAA [G5A C6G U7G C9G U10A] — higher, 0.00648
- AGUUAGGGAUGGGAGCUCCAGCACAGGUAAAUGGACAGAAGGGCAGAGCAA [G5A C6G U7G C9A U27G G28U] — lower, 0.0007
- AGUUAGGGAUGGGAGCUCCAGCACAGGAAAAUGGACAGAAGGGCAGAGCAA [G5A C6G U7G C9A U27G G28A] — lower, 0.00077
- AGUUAGGGAUGGGAGCUCCAGCACAGGCAAAUGGACAGAAGGGCAGAGCAA [G5A C6G U7G C9A U27G G28C] — lower, 0.00084
- AGUUAGGGAUGGGAGCUCCAGCACAGUGAAAGGGACAGAAGGGCAGAGCAA [G5A C6G U7G C9A U32G] — lower, 0.00176
- AGUUAGGGAUGGGAGCUCCAGCACAGUGAAAAGGACAGAAGGGCAGAGCAA [G5A C6G U7G C9A U32A] — lower, 0.000886
- AGUUAGGGAUGGGAGCUCCAGCACAGUGAAACGGACAGAAGGGCAGAGCAA [G5A C6G U7G C9A U32C] — higher, 0.00508
- AGUUAGGGAUGGGAGCUCCAGCACAGUGAAACAGACAGAAGGGCAGAGCAA [G5A C6G U7G C9A U32C G33A] — lower, 0.00102
- AGUUAGGGAUGGGAGCUCCAGCACAGUGAAACCGACAGAAGGGCAGAGCAA [G5A C6G U7G C9A U32C G33C] — higher, 0.00477
- AGUUAGGACUGGGAGCUCCAGCACAGUGAAAUGGACAGAAGGGCAGAGCAA [G5A C6G U7G G8A] — higher, 0.0142
- AGUUAGGUCUGGGAGCUCCAGCACAGUGAAAUGGACAGAAGGGCAGAGCAA [G5A C6G U7G G8U] — higher, 0.00501
- AGUUAGGCCUGGGAGCUCCAGCACAGUGAAAUGGACAGAAGGGCAGAGCAA [G5A C6G U7G G8C] — higher, 0.00742
- AGUUAGGGAUGGGAGCGCCAGCACAGUGAAAUGGACAGAAGGGCAGAGCAA [G5A C6G U7G C9A U17G] — higher, 0.00284
- AGUUAGGCAUGGGAGCUCCAGCACAGUGAAAUGGACAGAAGGGCAGAGCAA [G5A C6G U7G G8C C9A] — higher, 0.0086
- AGUUAGGCUUGGGAGCUCCAGCACAGUGAAAUGGACAGAAGGGCAGAGCAA [G5A C6G U7G G8C C9U] — lower, 0.00108
- AGUUAGGCGUGGGAGCUCCAGCACAGUGAAAUGGACAGAAGGGCAGAGCAA [G5A C6G U7G G8C C9G] — higher, 0.0513
- AGUUAGGGAUGGGAGCUCCAGCACAGAUAAAUGGACAGAAGGGCAGAGCAA [G5A C6G U7G C9A U27A G28U] — lower, 0.00161
- AGUUAGGGAUGGGAGCUCCAGCACAGAAAAAUGGACAGAAGGGCAGAGCAA [G5A C6G U7G C9A U27A G28A] — lower, 0.00156
- AGUUAGGGAUGGGAGCUCCAGCACAGACAAAUGGACAGAAGGGCAGAGCAA [G5A C6G U7G C9A U27A G28C] — higher, 0.0045
- AGUUAGGGAUGGGAGCUCCAGCACAGUGAAAACGACAGAAGGGCAGAGCAA [G5A C6G U7G C9A U32A G33C] — lower, 0.0011
- AGUUAGGGAUGGGAGCUCCAGCACAGUGAAAAAGACAGAAGGGCAGAGCAA [G5A C6G U7G C9A U32A G33A] — lower, 0.00102
- AGUUAGGGAUGGGAGCUCCAGCACAGUGAAAAUGACAGAAGGGCAGAGCAA [G5A C6G U7G C9A U32A G33U] — higher, 0.00206
- AGUUAGGGAUGGGAGCUCCAGCACAGCCAAAUGGACAGAAGGGCAGAGCAA [G5A C6G U7G C9A U27C G28C] — higher, 0.0122
- AGUUAGGGAUGGGAGCUCCAGCACAGCUAAAUGGACAGAAGGGCAGAGCAA [G5A C6G U7G C9A U27C G28U] — higher, 0.00816
- AGUUAGGGAUGGGAGCUCCAGCACAGCAAAAUGGACAGAAGGGCAGAGCAA [G5A C6G U7G C9A U27C G28A] — higher, 0.00952
- AGUUAGGACCGGGAGCUCCAGCACAGUGAAAUGGACAGAAGGGCAGAGCAA [G5A C6G U7G G8A U10C] — higher, 0.159
- AGUUAGGGUGGGGAGCUCCAGCACAGUGAAAUGGACAGAAGGGCAGAGCAA [G5A C6G U7G C9U U10G] — higher, 0.493
- AGUUAGGGUAGGGAGCUCCAGCACAGUGAAAUGGACAGAAGGGCAGAGCAA [G5A C6G U7G C9U U10A] — lower, 0.00106
- AGUUAGGGUCGGGAGCUCCAGCACAGUGAAAUGGACAGAAGGGCAGAGCAA [G5A C6G U7G C9U U10C] — higher, 0.00564
